# Reference: patent publication US20180200331A1, “BST-2 AS A THERAPEUTIC TARGET AND DIAGNOSTIC MARKER FOR BREAST CANCER GROWTH AND METASTASIS” (University of Iowa Research Foundation, priority 2015, published 2018)
# B1: rBST-2: recombinant extracellular domain (ECD) of BST-2 (protein, UniProt Q10589 49-161, looked up)
# extracellular domain: NSEACRDGLRAVMECRNVTHLLQQELTEAQKGFQDVEAQAATCNHTVMALMASLDAEKAQGQKKVEELEGEITTLNHKLQDASAEVERLRRENQVLSVRIADKKYYPSSQDSS
# modifications: extracellular domain
# Columns and labels:
# [1] = system: BST-2; test: Adhesion of cancer cells to plates coated with recombinant BST-2; type: cell-based; details: plates coated with 0, 20 or 50 ng rBST-2
# Protocol: (§1) FIG. 22. […] PKH67Green-labeled shControl (shCTL)- or sh413 (shBST-2)-expressing (A) 4T1 or (B) E0771 cells were allowed to adhere to plates that were coated with 0, 20 or 50 ng of recombinant BST-2 (rBST-2) and fluorescence assessed with a plate reader. (C) Representative confocal images of cells attached to wells coated with increasing concentrations of rBST-2. (D) Quantification of PKH67Green-labeled MCF-7 cells expressing Vector, WT or C3A BST-2 adhered to plates that were coated with 0, 20 or 50 ng of rBST-2. […] Cells that adhered to WT MCF-7 monolayers were quantified and represented as relative fluorescence intensity. Each data point corresponds to six different wells analyzed. Error bars correspond to SEM. Significance was taken at P<0.05* and P<0.01**. n.s=not significant.
# Low BST-2 expressing human breast cancer cells (MCF-7) stably expressing WT BST-2 (WT) efficiently binds BST-2 ECD while similar cells stably expressing dimerization mutant BST-2 (C3A) are defective in binding BST-2 ECD. Treatment of BST-2-expressing breast cancer cells with BST-2 ECD blocks cancer cell-to-cancer clustering (FIG. 22).
# [2] = system: MCF-7 cells; test: Adhesion to MCF-7 WT monolayers blocked with rBST-2; type: cell-based, human
# Protocol: as §1
molecule,measurement,setting,value
B1,binding to BST-2,[1],binds to BST-2 in vitro
same,BST-2-mediated adhesion of breast cancer cells,[2],prevents BST-2-mediated adhesion of breast cancer cells
